Data: the supplement of paper PMC5998384

Tests used:
HeLa Kyoto [1] = experiment: thermal stability score vs G1/S (z-score of summed log2 fold changes over temperatures); higher = more thermally stable than in G1/S
HeLa Kyoto [2] = experiment: solubility change mitosis vs G1/S (difference of NP-40 vs SDS log2 ratios) (log2 ratio difference); higher = more soluble in mitosis
HeLa Kyoto [3] = experiment: solubility in G1/S (NP-40 vs SDS abundance) (log2 ratio); higher = more soluble; settings: cell cycle stage: G1/S
[4] = cell cycle stage: early G1 (4.5 h after nocodazole release)
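Throughout, for solubility change mitosis vs G1/S (difference of NP-40 vs SDS log2 ratios): synchronized HeLa Kyoto cells (double thymidine block for G1/S, nocodazole release for mitosis), protein amounts in NP-40 versus SDS lysates quantified by mass spectrometry, three biological replicates.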
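Throughout, for solubility in G1/S (NP-40 vs SDS abundance): HeLa Kyoto cells arrested at G1/S by double thymidine block, proteins quantified by TMT10plex mass spectrometry in mild NP-40 versus SDS extracts, three biological replicates.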
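Throughout, for thermal stability score vs G1/S (z-score of summed log2 fold changes over temperatures): synchronized HeLa Kyoto cells, proteins quantified by TMT10plex mass spectrometry, three biological replicates, mitosis taken 0.5 h after nocodazole release, G1/S directly after double thymidine block.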

Sequence | thermal stability score (HeLa Kyoto [1]; [4]) | thermal stability score (HeLa Kyoto [1]; cell cycle stage: mitosis) | solubility change mitosis (log2) (HeLa Kyoto [2]) | solubility in G1/S (log2) (HeLa Kyoto [3])
MGDKGTRVFKKASPNGKLTVYLGKRDFVDHIDLVDPVDGVVLVDPEYLKERRVYVTLTCAFRYGREDLDVLGLTFRKDLFVANVQSFPPAPEDKKPLTRLQERLIKKLGEHAYPFTFEIPPNLPCSVTLQPGPEDTGKACGVDYEVKAFCAENLEEKIHKRNSVRLVIRKVQYAPERPGPQPTAETTRQFLMSDKPLHLEASLDKEIYYHGEPISVNVHVTNNTNKTVKKIKISVRQYADICLFNTAQYKCPVAMEEADDTVAPSSTFCKVYTLTPFLANNREKRGLALDGKLKHEDTNLASSTLLREGANREILGIIVSYKVKVKLVVSRGGLLGDLASSDVAVELPFTLMHPKPKEEPPHREVPENETPVDTNLIELDTNDDDIVFEDFARQRLKGMKDDKEEEEDGTGSPQLNNR [ARRB1] | -0.748 | -0.986 | -0.0694 | 0.139
MGDMKTPDFDDLLAAFDIPDPTSLDAKEAIQTPSEENESPLKPPGICMDESVSLSHSGSAPDVPAVSVIVKNTSRQESFEAEKDHITPSLLHNGFRGSDLPPDPHNCGKFDSTFMNGDSARSFPGKLEPPKSEPLPTFNQFSPISSPEPEDPIKDNGFGIKPKHSDSYFPPPLGCGAVGGPVLEALAKFPVPELHMFDHFCKKEPKPEPLPLGSQQEHEQSGQNTVEPHKDPDATRFFGEALEFNSHPSNSIGESKGLARELGTCSSVPPRQRLKPAHSKLSSCVAALVALQAKRVASVTKEDQPGHTKDLSGPTKESSKGSPKMPKSPKSPRSPLEATRKSIKPSDSPRSICSDSSSKGSPSVAASSPPAIPKVRIKTIKTSSGEIKRTVTRILPDPDDPSKSPVGSPLGSAIAEAPSEMPGDEVPVEEHFPEAGTNSGSPQGARKGDESMTKASDSSSPSCSSGPRVPKGAAPGSQTGKKQQSTALQASTLAPANLLPKAVHLANLNLVPHSVAASVTAKSSVQRRSQPQLTQMSVPLVHQVKKAAPLIVEVFNKVLHSSNPVPLYAPNLSPPADSRIHVPASGYCCLECGDAFALEKSLSQHYGRRSVHIEVLCTLCSKTLLFFNKCSLLRHARDHKSKGLVMQCSQLLVKPISADQMFVSAPVNSTAPAAPAPSSSPKHGLTSGSASPPPPALPLYPDPVRLIRYSIKCLECHKQMRDYMVLAAHFQRTTEETEGLTCQVCQMLLPNQCSFCAHQRIHAHKSPYCCPECGVLCRSAYFQTHVKENCLHYARKVGYRCIHCGVVHLTLALLKSHIQERHCQVFHKCAFCPMAFKTASSTADHSATQHPTQPHRPSQLIYKCSCEMVFNKKRHIQQHFYQNVSKTQVGVFKCPECPLLFVQKPELMQHVKSTHGVPRNVDELSSLQSSADTSSSRPGSRVPTEPPATSVAARSSSLPSGRWGRPEAHRRVEARPRLRNTGWTCQECQEWVPDRESYVSHMKKSHGRTLKRYPCRQCEQSFHTPNSLRKHIRNNHDTVKKFYTCGYCTEDSPSFPRPSLLESHISLMHGIRNPDLSQTSKVKPPGGHSPQVNHLKRPVSGVGDAPGTSNGATVSSTKRHKSLFQCAKCSFATDSGLEFQSHIPQHQVDSSTAQCLLCGLCYTSASSLSRHLFIVHKVRDQEEEEEEEAAAAEMAVEVAEPEEGSGEEVPMETRENGLEECAGEPLSADPEARRLLGPAPEDDGGHNDHSQPQASQDQDSHTLSPQV [ZNF592] | -0.704 | -1.78 | 0.109 | -0.283
MGKMAAAVGSVATLATEPGEDAFRKLFRFYRQSRPGTADLEGVIDFSAAHAARGKGPGAQKVIKSQLNVSSVSEQNAYRAGLQPVSKWQAYGLKGYPGFIFIPNPFLPGYQWHWVKQCLKLYSQKPNVCNLDKHMSKEETQDLWEQSKEFLRYKEATKRRPRSLLEKLRWVTVGYHYNWDSKKYSADHYTPFPSDLGFLSEQVAAACGFEDFRAEAGILNYYRLDSTLGIHVDRSELDHSKPLLSFSFGQSAIFLLGGLQRDEAPTAMFMHSGDIMIMSGFSRLLNHAVPRVLPNPEGEGLPHCLEAPLPAVLPRDSMVEPCSMEDWQVCASYLKTARVNMTVRQVLATDQNFPLEPIEDEKRDISTEGFCHLDDQNSEVKRARINPDS [ALKBH1] | -0.273 | 0.558 | -0.0399 | 0.0175
